# Experimental data from paper PMC10493288, “Identification and characterization of a novel chromosomal aminoglycoside 3’-O-phosphotransferase, APH(3′)-Id, from Kluyvera intermedia DW18 isolated from the sewage of an animal farm” (Frontiers in Microbiology, 2023).
# What was measured:
# Assay in all cases: purified protein
# Format in all cases: biochemical, Kluyvera intermedia
# Conditions in all cases: 1 mM ATP, 1 mM MgCl2, 2 mM KCl, 100 mM HEPES pH 7.5
# [1] = tested on: NC[C@@H]1O[C@H](O[C@H]2[C@@H](O)[C@H](O[C@@H]3[C@@H](O)[C@H](N)C[C@H](N)[C@H]3O[C@H]3O[C@H](CO)[C@@H](O)[C@H](O)[C@H]3N)O[C@@H]2CO)[C@H](N)[C@@H](O)[C@@H]1O
# [2] = tested on: NC[C@H]1O[C@H](O[C@H]2[C@H](O)[C@@H](O[C@H]3O[C@H](CO)[C@@H](O)[C@H](N)[C@H]3O)[C@H](N)C[C@@H]2N)[C@H](O)[C@@H](O)[C@@H]1O
# [3] = tested on: NC[C@H]1O[C@H](O[C@H]2[C@H](O[C@@H]3O[C@H](CO)[C@@H](O)[C@H]3O)[C@@H](O)[C@H](N)C[C@@H]2N)[C@H](N)[C@@H](O)[C@@H]1O
substance,measurement,setting,value
APH(3′)-Id (Kluyvera intermedia),Km,[1],12.19 ± 1.56 µM
same,kcat,[1],2.64 ± 0.072 s⁻¹
same,kcat/Km,[1],218000 ± 21000 M⁻¹ s⁻¹
same,Km,[2],10.04 ± 2.95 µM
same,kcat,[2],1.06 ± 0.114 s⁻¹
same,kcat/Km,[2],110000 ± 18000 M⁻¹ s⁻¹
same,Km,[3],3.831 ± 1.57 µM
same,kcat,[3],1.73 ± 0.023 s⁻¹
same,kcat/Km,[3],496000 ± 163000 M⁻¹ s⁻¹
